B1: lacritin: recombinant human lacritin from E. coli; mature 119 residue fragment (SEQ ID NO:10) of native lacritin SEQ ID NO:4 (protein, listed as Homo sapiens)
chain: EDASSDSTGADPAQEAGTSKPNEEISGPAEPASPPETTTTAQETSAAAVQGTAKVTSSRQELNPLKSIVEKSILLTEQALAKAGKGMHGGVPGGKQFIENGSEFAQKLLKKFSLLKPWA

Assays:
caspase-3 = assay: Caspase-3 activity in human corneal epithelial cells treated with TNF; assay type: cell-based; settings: FIG. 11
Protocol: FIG. 11 graphically illustrates the ability of lacritin and fragments of lacritin to inhibit the ability of tumor necrosis factor (TNF) to regulate caspase-3 activity in human corneal epithelial cells. Go6976 is an inhibitor of protein kinase C. The ordinate represents relative fluorescence units. White bars indicate 3 hours and diagonally-hatched bars indicate 6 hours.
Lacritin-induced proliferation and calcium signaling was studied in the human corneal epithelial (HCE) cell line. HCE cells were grown at 37° C. in DMEM F/12 supplemented with 10% FBS and 50 μg/ml gentamicin. Each experiment was done in a dose- and time-dependent manner using TNF-α (5-20 ng/ml) and lacritin (1-10 nM). Cell viability was measured spectrophotometrically at an absorbance of 570 nm using the MTT assay. Caspase-8 activity was detected fluorometrically by measuring cleavage of the fluorogenic substrate IETD-pNA at an excitation wavelength of 405 nm. Lacritin-induced cell proliferation was studied by H3-thymidine incorporation and via fluorescence-based detection of PKC, PLC and cAMP. Calcium signaling was detected by confocal microscopy of Fluo-4 loaded cells.

Sertoli (TM3) cells = assay: 3H-thymidine uptake mitogenesis assay; assay type: cell-based, mouse
Protocol: (§1) For phosphotyrosine blotting and mitogenesis assays, cells in serum-containing media were seeded overnight in 24-well plates at a density of 0.5×10^5 cells/mm^2 corresponding to 20-30% confluency after cell attachment, incubated in serum-free media without supplements for 24 h (phosphotyrosine) or washed with serum-free media without supplements three times (mitogenesis) and incubated with lacritin (1-1000 nM), or positive controls EGF (1.6 nM) and 10% fetal bovine serum, or negative controls bovine serum albumin or no additive in serum-free media without supplements for the indicated times (phosphotyrosine) or 30 h (mitogenesis). […] After washing, bound antibodies were detected with peroxidase-labeled secondary antibody and ECL. […] Incorporation was stopped with ice-cold phosphate buffered saline and followed by addition of cold and then room temperature trichloracetic acid (10%) for 10 min each, washing of cells with phosphate buffered saline, solubilization with 1 N sodium hydroxide, neutralization with 1 N hydrochloric acid, addition of scintillation fluid and then quantitation in a scintillation counter. […] Seventy-two hours post-transfection, mitogenesis was assessed by co-addition of 10 […] lacritin and [^3H]-thymidine (2 mCi/ml) (Amersham, Piscataway N.J.) for 24 hrs. […]

Leydig (TM4) cells = assay: 3H-thymidine uptake mitogenesis assay; assay type: cell-based, mouse
Protocol: as §1

HSG cells = assay: FACS analysis of apoptosis (sub G0/G1) of HSG cells in nutrient depleted medium; assay type: cell-based, human
Protocol: HSG cells were cultured for different times in alpha-MEM medium, with or without lacritin (0.4 nM), then fixed with ice-old 70% ethanol and stained with propidium iodide at saturating condition, and examined by FACS. FIG. 3A is a bar graph of the resulting data plotting the number of cells entering apoptosis (the sub G0/G1 population) vs. time. After 24 hrs, cells without lacritin show very large DNA fragmentation or apoptosis. FIGS. 3B and 3C are graphic representations of flow cytometry readings showing that significant DNA fragmentation occurs in the cells cultured in the absence of lacritin (a sub G0/G1 population is indicated as a left shoulder of the large peak of FIG. 3B) but not present in FIG. 3C).
Subsequent flow cytometry (FACS) analysis was carried out to monitoring the time course of cell death and survival promotion function of lacritin. […] Lacritin protected cells from death in nutrient depleted medium (alpha MEM) up to 96 hours or longer. Cells cultured in the absence of lacritin undergo apoptosis starting at about 24 hours and over 50% cells are apoptotic after 48 hours of culture.

[1] = test system: human submandibular ductal ('HSG') cells; assay: HSG ductal cell number in serum-free medium after four days; assay type: cell-based; settings: BSA 10 ng/ml control
Protocol: FIGS. 2A and 2B represent lacritin-induced proliferation and tyrosine phosphorylation. FIG. 2A is a graphic representation of the number of human salivary gland (HSG) cells was determined four days after administering various amounts of lacritin (0 to 10 ng/ml of lacritin) to HSG cells in serum-free medium. FIG. 2B is a bar graph representing the proliferation of HSG cells upon administration of BSA (lane 1; 10 ng/ml) or serum (lane 2; 10%) was added for the same period of time. All experiments were performed on laminin-1-(0.05 μM) coated wells.
Quiescent human submandibular ductal (‘HSG’) cells were cultured in serum-free media containing increasing amounts of lacritin and cell proliferation was studied.

melanoma (WM-164) cells = assay: 3H-thymidine uptake mitogenesis assay; assay type: cell-based, human
Protocol: (§2) For phosphotyrosine blotting and mitogenesis assays, cells in serum-containing media were seeded overnight in 24-well plates at a density of 0.5×10^5 cells/mm^2 corresponding to 20-30% confluency after cell attachment, incubated in serum-free media without supplements for 24 h (phosphotyrosine) or washed with serum-free media without supplements three times (mitogenesis) and incubated with lacritin (1-1000 nM), or positive controls EGF (1.6 nM) and 10% fetal bovine serum, or negative controls bovine serum albumin or no additive in serum-free media without supplements for the indicated times (phosphotyrosine) or 30 h (mitogenesis). For phosphotyrosine assays, cells were extracted in 1% NP40 containing sodium vanadate (2 mg/ml), DTT (5 mg/ml), protease inhibitors, 50 mM HEPES, 100 mM NaCl, and 2 mM EDTA; then separated by 10% SDS PAGE, transferred and blotted. The following antibodies (Cell Signaling Technology, Beverly Mass.) were tested: antiphosphotyrosine antibody (P-Tyr-100), anti-phospho-PKC αβII, anti-PKCα, anti-phospho-PKCδ, anti-phospho-PKC (pan), anti-p44/42 MAPK, anti-phospho-Raf, anti-phospho-SAPK/JNK, anti-phospho-p38 Map kinase, anti-phospho-Raf, anti-phospho-Akt, anti-phospho-CaMKII, anti-phospho-MARCKS, or anti-tubulin (loading control). After washing, bound antibodies were detected with peroxidase-labeled secondary antibody and ECL. With the exception of at least nine proteins in the P-Tyr-100 blot (FIG. 1), none of the effectors tested above appeared to be phospho-activated during lacritin signaling (not shown). For mitogenesis (Hussaini et al., '00), [^3H]-thymidine (2 mCi/ml) was added for the next 6 h. Incorporation was stopped with ice-cold phosphate buffered saline and followed by addition of cold and then room temperature trichloracetic acid (10%) for 10 min each, washing of cells with phosphate buffered saline, solubilization with 1 N sodium hydroxide, neutralization with 1 N hydrochloric acid, addition of scintillation fluid and then quantitation in a scintillation counter. To deplete PKCα in HSG cells, a pool of four PKCα-specific siRNAs (100 nM) were transfected via LipofectAMINE 2000 in Opti-MEMI Reduced Serum Medium (Invitrogen, Grand Island N.Y.) without serum and antibiotics according to manufacturer's instructions. Each of the four siRNAs was also individually transfected. In negative controls, cells were transfected with a pool of four lamin-specific siRNAs (Upstate LLC, Charlottesville Va.; Dharmacon Inc, Lafayette Colo.). Seventy-two hours post-transfection, mitogenesis was assessed by co-addition of 10 […] lacritin and [^3H]-thymidine (2 mCi/ml) (Amersham, Piscataway N.J.) for 24 hrs. PKCα depletion was confirmed by Western blotting.

[2] = test system: foreskin fibroblast (HS68) cells; assay: 3H-thymidine uptake mitogenesis assay; assay type: cell-based, human
Protocol: as §2

melanoma (SK-MEL) cells = assay: 3H-thymidine uptake mitogenesis assay; assay type: cell-based, human
Protocol: as §2

Row | Molecule | protection from cell death by TNF (caspase-3 activity) (caspase-3) | mitogenesis (Sertoli (TM3) cells) | mitogenesis (Leydig (TM4) cells) | DNA fragmentation (HSG cells; lacritin 10 ng/ml, alpha MEM) | duration of protection from death (HSG cells; nutrient depleted medium (alpha MEM)) [h] | ductal cell number relative to BSA negative control [1] | mitogenesis (melanoma (WM-164) cells) | mitogenesis [2] | mitogenesis (melanoma (SK-MEL) cells)
1 | Cn1c2ccccc2c2c3c(c4c5ccccc5n(CCC#N)c4c21)CNC3=O [Go 6976] | do not protect | – | – | – | – | – | – | – | –
2 | B1 | – | not mitogenic | not mitogenic | no noticeable DNA fragmentation | ≥ 96 | more than twofold | not mitogenic | not mitogenic | not mitogenic
